# Laboratory results as given in the supplement of paper PMC9170038.
# Test system: MS2 coat protein
# Experiment: apparent KD of MS2 coat protein; designed switch direction (-1 OFF switch, 1 ON switch): -1; higher = weaker reporter binding
# Summary of the method: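 Designed RNA switches with common flanks were made on Illumina chips by stalled E. coli RNA polymerase. Titration with SNAP-549-labelled MS2 coat protein doubled from 0.7 or 1.5 nM up to 3 µM. Apparent KD is each design's median over clusters after curve-fitting normalised fluorescence.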
# [1] = input ligand: microRNA oligo, concentration not stated
# [2] = Eterna round: R95, input ligand: FMN 200 uM
# [3] = Eterna round: R95, input ligand: microRNA oligo, concentration not stated
# [4] = Eterna round: R95, input ligand: none
Sequence,apparent KD of MS2 coat protein [3] [nM],apparent KD of MS2 coat protein (input ligand: FMN 200 uM) [nM],apparent KD of MS2 coat protein (input ligand: none) [nM],also measured
"UAUUAACAUGUAGGAUAUCUGCACGAUUAGUGCAGAGAAGGACAUGAGGAUCACCCAUGUAGAUCAUAAUAAUUUAAUUUAAUU [ENG1/6-D1] (Eterna round: R96, puzzle: Exclusion NG 1)",,,,apparent KD of MS2 coat protein [1]: 106 nM
UUAUACGCUGAGGAUAUCUUCACUGAGAGGUGAAGAGAAGGCGGUACAUGAGGAUCACCCAUGUCUAUGGGCAG [Ex-6 Malc#20] (puzzle: Exclusion 6),312,,,apparent KD of MS2 coat protein [2]: 376 nM; apparent KD of MS2 coat protein [4]: 479 nM
"CAGCUGAAAGUGAGGAUAUCGACUGCCUCGGCAGUCGAGAAGGCACAUGAGGAUCACCCAUGUCUCAACAGCUG [BmEx4/1-A5] (Eterna round: R97, puzzle: Brourd's mod of Exclusion 4)",,81.4,23,
UCUUAUUGCAAGGAUAUGCAAUUUAUUUUUUAUGCAGAAGGUGCAACAUGAGGAUCACCCAUGUUUCCGGGCAU [JR_E6_Sub037] (puzzle: Exclusion 6),13.5,,,
"AGAUCUAUCACGAAAGUGAUAGAUCAAAUUAGUUUUUAAACAUGAGGAUCACCCAUGUCCUAGUGGGCUAGUCUUAU [Mat - Sensor v2 - var 2 - Mod - D135] (Eterna round: R96, puzzle: Sensor v2, turn-off variant 2)",,236,239,apparent KD of MS2 coat protein [1]: 167 nM
AUUUUGUCAGGAUAUGAGUAGUAGGACGAAAGUGUUAUUAUUUAGAAGGGACAUGAGGAUCACCCAUGUUCCUC [Bring Us a Shrubbery-03] (puzzle: Exclusion 4),12.1,,,
"CUCGUGCAGCUUUGCUGUACGAGUACAUGAGGAUCACCCAUGUAGGAUAUGGUACGCUUUGCGUGCUAGAAGGACGUGUGUAUG [JL EXNG3 1.39] (Eterna round: R96, puzzle: Exclusion NG 3)",,117,31.8,apparent KD of MS2 coat protein [1]: 29 nM
CCGCAAAAUGAGGAUAUCGUAUCGGAUACGAUACGAGAAGGCGUAACAUGAGGAUCACCCAUGUGUCCUAGCGG [Fiskers Ex 6 - 35] (puzzle: Exclusion 6),13.5,,,
"UUCAUGUAAGGAUAUGUAGUGAUGACGAAAUUUGUCGUUAAACAGAAGGUACAUGAGGAUCACCCAUGUAGCUA [EX4 B.9] (Eterna round: R97, puzzle: Exclusion 4)",,133,27.4,
"GAGUGCUGAGGAUAUACAUGAGGAUCACCCAUGUGCUUCAGCUAGGAGACUAGCAUCCGUAGAAGGCAGUACUC [Mod of lroppy 24 - Jieux - Exclusion 3] (Eterna round: R97, puzzle: Exclusion 3)",,37.5,14.3,
UUUUAACAUGAGGAUCACCCAUGUGAGGAUAUCGUUAUUUUUAUUAAUAUUAAUAAAACGAGAAGGCACAUUUU [JMF 14] (puzzle: Exclusion 1),98.3,,,
"GUAGGUUAAGUAAGGAUAUACCUCUGGAAACAGAGGUAGAAGGUACAUGAGGAUCACCCAUGUUUCUCUUUUGC [Mod of Eli 6 - Jieux - Brourd's mod of Exclusion 4] (Eterna round: R97, puzzle: Brourd's mod of Exclusion 4)",,21.8,18.7,
"GUAACAUGCUGGUGAUCAUACAUGAGGAUCACCCAUGUAACAAGCUUUUUGUUCGUCUUAAUUUAAUUGAUUACUAG [Stov1/8-B2] (Eterna round: R97, puzzle: Sensor, turn-off variant 1)",,202,196,
CCAUCGAGUGUGAGGAUAUGCUGUUCGAAAGAGCAGCAGAAGGCACAUGAGGAUCACCCAUGUGGAUACGGUGG [Mat - Exclusion 4 - JL Mod - D82] (puzzle: Brourd's mod of Exclusion 4),30.6,,,
"UAUAUAUAGUAAGGAUAUGUAAUUAUUCUAUAAACAGAAGGUACUGACAUGAGGAUCACCCAUGUUUUAGUGUGGGCAUGUAGA [JMF's solution 40] (Eterna round: R96, puzzle: Exclusion NG 1)",,,,apparent KD of MS2 coat protein [1]: 33.8 nM
CCCGUGUUAGGAUAUACGGCACACCCACCAGCGGGUGUAUAGUAGAAGGAACAUGAGGAUCACCCAUGUAUAAC [Inardiza] (puzzle: Exclusion 4),32.4,,,
"GCAGCAUUAGGAUAUUGCUAAUGUAACAUGAGGAUCACCCAUGUGUGUCGUUAUUACUUAUAAGAAGGAAUGUGCC [Eternabot (L2) Solution 88] (Eterna round: R97, puzzle: Exclusion 5)",,24.9,36.4,
"GGGCUUAAAGGAUAUGCAAGGAGCCACAUGAGGAUCACCCAUGUACAACCUCAGUCCCUGGUAGAAGGUUACGCAA [whoooo] (Eterna round: R97, puzzle: Exclusion 5)",,35,30.6,

Sequence,apparent KD of MS2 coat protein [3] [nM],apparent KD of MS2 coat protein (input ligand: FMN 200 uM) [nM],apparent KD of MS2 coat protein (input ligand: none) [nM],also measured
AGAUCCUGAGUCAGGAUAUAGAGGCGGUAGCCUGGCUAGAAGGGACAUGAGGAUCACCCAUGUGGGUUCUUGCC [Gecela] (puzzle: Brourd's mod of Exclusion 4),12.7,,,
"UUUGGGCAAGCAUGAUCCCACAUGAGGAUCACCCAUGUGUUCGUCUUAUAGGCUGCUGAGGCUUUUGCCUCGGUGGC [LRO Sensor-off var1-01 loose mod of D91 from Mat747] (Eterna round: R97, puzzle: Sensor, turn-off variant 1)",,751,965,
"CUAAAUCAUGUAGGAUAUGCAUAGCGAAGCUAUGCAGAAGGACAUGAGGAUCACCCAUGUUCUUCCGUCUGAGAACAGACGGAA [Mat - Exclusion NG 1 - Mod of JL - D32] (Eterna round: R96, puzzle: Exclusion NG 1)",,164,32.5,apparent KD of MS2 coat protein [1]: 21.1 nM
"AUUUUAUUCUGAGGAUAUUGAUUAAUCCUCUCACAUGAGGAUCACCCAUGUUUCCGUGUUUACCGCAAGAAGGCAGUUUUGUAU [JR_ExcNG2_Sub025] (Eterna round: R96, puzzle: Exclusion NG 2)",,41.4,41,apparent KD of MS2 coat protein [1]: 35.2 nM
"UAAGUUUUGGUAGGAUAUACUUUAAAUUUCUCUAUCCAUACAUGAGGAUCACCCAUGUUUACAUUGUAGAAGGACCUUUAUGUU [JR_ExcNG2_Sub057] (Eterna round: R96, puzzle: Exclusion NG 2)",,,,apparent KD of MS2 coat protein [1]: 30.2 nM
GAUUGACAUGAGGAUCACCCAUGUGAGGAUAUCGGCUGGACCGUGUUGGCUUGCUUUUCGAGAAGGCGCAUAGG [Exclusion 1 V49] (puzzle: Exclusion 1),36.8,,,apparent KD of MS2 coat protein [2]: 55 nM; apparent KD of MS2 coat protein [4]: 35 nM
CUUGUACAUGAGGAUCACCCAUGUUAGGAUAUCUCGCCGUCGGCUUGCCGACGGUAUUAGAGAAGGGACAAGGG [JL Tixe mod 7] (puzzle: Exclusion 1),18.6,,,
"CAGUACUGAGGAUAUACAUGAGGAUCACCCAUGUGAGAGUUACUAGUGAGGUCGAUUAGUAGAAGGCAGUACUG [Mat X3R4 m29] (Eterna round: R97, puzzle: Exclusion 3)",,215,39.6,
"GCUGGUCGAGGAUAUGCAUAUACUGGAUACAGUGGAAGGUCACAUGAGGAUCACCCAUGUAGAAGGCGACCAGC [EX2 #36] (Eterna round: R97, puzzle: Exclusion 2)",,634,527,
"ACUGACAUGAGGAUCACCCAUGUAGAUGUGUUCGCAAGCCUCUAGGAUAUAUCUAACCUACCCGGAUAGAAGGAGAGGUUCCCU [Eternabot solution 9] (Eterna round: R96, puzzle: Exclusion NG 3)",,25.2,31.7,apparent KD of MS2 coat protein [1]: 21.1 nM
UAUGUGUGAGGAUAUGGUAAAGAUAAGAUGAUGAAAGAACUCCAGAAGGCACAUGAGGAUCACCCAUGUAGAUA [Mat - Exclusion 4 - Mod of JL - D23] (puzzle: Exclusion 4),20.4,,,
GACAAGGGAGGAUAUGCACAAGGGAUAUCUGACAUGCCGAUACAUGAGGAUCACCCAUGUAGAAGGCCCGAAUA [Oneser] (puzzle: Exclusion 2),12.5,,,
"GAAAAGCAUGUGAGGAUAUGCACACCGGACCGGUGGUAGAAGGCACAUGAGGAUCACCCAUGUGACCAAGAAUA [BmEX4 A.4] (Eterna round: R97, puzzle: Brourd's mod of Exclusion 4)",,19.7,10.6,
"UAUUAACAAGCUAGGUCCCACAUGAGGAUCACCCAUGUGCUCGUCUUAUAAGGUACUGUGACGAAAGUCACGGUACC [Sensor 3, v1 - 79] (puzzle: Sensor v3, turn-off variant 1)",909,,,apparent KD of MS2 coat protein [2]: 30 nM; apparent KD of MS2 coat protein [4]: 31.5 nM
UCUCGACAUGAGGAUCACCCAUGUCAGGAUAUUGUGUUUGAGGUUUUUUACCUUUUGACAAGAAGGGAUGUGUG [LRO-Excl1-22] (puzzle: Exclusion 1),28.6,,,
"UUUAAUUUUUUUUUUUUACAAGCUUUUUGCUCGUCUUAUACAUGAGGAUCACCCAUGUAAAUGGAGGGUAAAUUAUC [JMF 83] (puzzle: Sensor v3, turn-off variant 2)",32,,,apparent KD of MS2 coat protein [2]: 14.8 nM; apparent KD of MS2 coat protein [4]: 11.1 nM
"UCUUAGUCAGGAUAUACAUGAGGAUCACCCAUGUAAAAUUUUAAUUUAAUUUUAAGGUGUAGAAGGGACCACUU [Ex3 #19] (Eterna round: R97, puzzle: Exclusion 3)",,22.2,29,
"UUUUACAAGCUAAGAUCCUACAUGAGGAUCACCCAUGUGGUCCGGUGACGUGAGUCACCGGACUUAGCUCGUCUUGG [salish99_S_TOV1_R5_087] (Eterna round: R97, puzzle: Sensor, turn-off variant 1)",,69.5,84.7,
